Reference: patent US20260042817A1 (PROVIDENCE HEALTH AND SERVICES OREGON, published 2026)

Molecular target: T1, recombinant TGFβ (Homo sapiens (Human), UniProt P01137 279-390, Active TGFβ is a disulfide-linked homodimer ('TGFβ exists as a dimer'). One protomer is given; the assay form is two identical copies.)
T1 construct: also called TGF-beta; transforming growth factor beta
Assay: solution incubation of TGFβ (500 pg/mL) with a range of Fc:TβRII concentrations, 20 min at room temperature; remaining unbound TGFβ read on an anti-TGFβ1 ELISA plate
Procedure: The Fc:TβRII recombinant protein (glycosylated) was tested in vitro using enzyme-linked immunosorbent assay (ELISA) to verify a selective and high binding affinity for TGFβ. A known quantity of recombinant TGFβ (500 pg/mL) was incubated with a range of concentrations of Fc:TβRII in aqueous solution at room temperature for 20 minutes. Aliquots from each sample were applied to an anti-TGFβ1 ELISA plate to measure the remaining unbound TGFβ.

T1 sequence (P01137 279-390 limits assumed, form in doubt): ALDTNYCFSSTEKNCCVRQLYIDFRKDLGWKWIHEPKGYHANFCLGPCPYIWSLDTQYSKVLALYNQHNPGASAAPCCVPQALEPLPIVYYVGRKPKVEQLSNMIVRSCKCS

- IC50: 0.27 µg/mL
B1: Fc:TβRII recombinant protein (glycosylated) (Fc fusion)
chain: TIPPHVQKSVNNDMIVTDNNGAVKFPQLCKFCDVRFSTCDNQKSCMSNCSITSICEKPQEVCVAVWRKNDENITLETVCHDPKLPYHDFILEDAASPKCIMKEKKKPGETFFMCSCSSDECNDNIIFSEEYNTSNPDLLLVIFQSSSTMVRSVECPPCPAPPVAGPSVFLFPPKPKDTLMISRTPEVTCVVVDVSHEDPEVQFNWYVDGMEVHNAKTKPREEQFNSTFRVVSVLTVVHQDWLNGKEYKCKVSNKGLPAPIEKTISKTKGQPREPQVYTLPPSREEMTKNQVSLTCLVKGFYPSDIAVEWESNGQPENNYKTTPPMLDSDGSFFLYSKLTVDKSRWQQGNVFSCSVMHEALHNHYTQKSLSLSPGK
modifications: N-glycosylated (expressed in HEK 293T cells); sites not stated
notes: Purified on Protein A from HEK 293T supernatant; also called Fc:TβRII protein; unconjugated Fc:TβRII protein
